Assay results as given in patent publication US20240166733A1 (VERSITECH, published 2024).

Key:
Assay in all cases: ELISA, FABP coated on plate, HRP anti-mouse IgG detection, OD450
[1] = target: T1, human H-FABP recombinant protein (human, UniProt P05413 1-133, limits assumed)
T1 construct: also called human heart-FABP
Procedure: (§1) The mouse or human A-FABP, E-FABP, and H-FABP recombinant proteins ([…]) were coated on 96-well plates overnight for ELISA binding assay to evaluate the reactivity and specificity of monoclonal antibodies with various FABPs. [0155] 100 μL of 6H2 (1 μg/mL) was added to the wells and incubated for 1 h at room temperature. The plates were then washed three times with phosphate-buffered saline (PBS), followed by incubation with 0.2 μg/mL HRP-conjugated-[…] H+L (Proteintech, SA00001-1, Japan) as the detection antibody at room temperature for 1 hour. After washing with PBS, TMB chromogen solution (Beyotime, P0209, China) was added for color development; 2M H₂SO₄ was added to the wells to stop the enzyme-induced color reactions; and the absorbance at 450 nm was measured with a microtiter plate reader.

[2] = target: T2, mouse H-FABP recombinant protein (mouse, UniProt P11404 1-133, limits assumed)
T2 construct: also called mouse heart-FABP
T2 sequence (P11404 whole entry): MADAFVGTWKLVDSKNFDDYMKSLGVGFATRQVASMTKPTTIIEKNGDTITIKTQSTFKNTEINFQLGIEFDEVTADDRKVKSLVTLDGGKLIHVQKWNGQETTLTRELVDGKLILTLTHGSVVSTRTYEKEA
Procedure: as §1

[3] = target: T3, mouse E-FABP recombinant protein (mouse, UniProt Q05816 1-135, limits assumed)
T3 construct: also called mouse epidermal-FABP
T3 sequence (looked up): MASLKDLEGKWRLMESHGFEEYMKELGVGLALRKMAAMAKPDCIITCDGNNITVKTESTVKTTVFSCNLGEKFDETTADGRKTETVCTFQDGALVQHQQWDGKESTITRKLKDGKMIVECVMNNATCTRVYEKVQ
Procedure: as §1

[4] = target: T4, human E-FABP recombinant protein (human, UniProt Q01469 1-135, limits assumed)
T4 construct: also called human epidermal-FABP
T4 sequence (Q01469 whole entry): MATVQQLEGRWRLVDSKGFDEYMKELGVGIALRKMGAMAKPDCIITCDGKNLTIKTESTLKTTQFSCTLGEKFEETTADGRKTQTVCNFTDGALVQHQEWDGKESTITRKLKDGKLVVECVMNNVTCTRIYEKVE
Procedure: as §1

T1 sequence (P05413 whole entry): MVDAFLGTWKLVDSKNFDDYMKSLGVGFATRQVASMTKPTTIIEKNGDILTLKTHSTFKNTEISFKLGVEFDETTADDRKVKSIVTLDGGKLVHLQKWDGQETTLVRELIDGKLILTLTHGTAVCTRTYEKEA

binding result [1]: no binding (tested: 6H2 at 1 µg/mL)
binding result [2]: no binding (tested: 6H2 at 1 µg/mL)
binding result [3]: no binding (tested: 6H2 at 1 µg/mL)
binding result [4]: no binding (tested: 6H2 at 1 µg/mL)
B1: A-FABP neutralizing monoclonal antibody 6H2 (antibody, V domains shown)
VH: VKLQESGPELVKPGASVKIPCKASGYTFTDYNMDWVRQSRGKSLEWIGDINPYNGDTIYNQNFKGKATLTVDKSSTTAYLELRSLTSEDTAVYYCASGYGFWGQGTTVTVSS
VL: DIVMTQAPLSLPVSLGAQASISCRSSQSLVYINGNTYLHWYLQKPGQSPKLLIYKVSNRFSGVPDRFSGSGSGTDFTLKISRVEAEDLGVYFCSQSTHVPYTFGGGTKLEIK
notes: also called 6H2 mAb
